Reference: patent US20200031927A1

Key:
[1] = biological target: soluble KIR3DL1*002-Fc (human) (UniProt P43629); assay: SPR (BIACORE T-100), kinetics
[2] = biological target: soluble KIR3DL1*001-Fc (human) (UniProt P43629); assay: SPR (BIACORE T-100)
[3] = biological target: soluble KIR3DL1*033-Fc (human) (UniProt P43629); assay: SPR (BIACORE T-100)
[4] = biological target: soluble KIR3DL1*002-Fc (human) (UniProt P43629); assay: SPR (BIACORE T-100)

soluble KIR3DL1*002-Fc (human), sequence (P43629 other isoform, or with tags, fused parts or gaps): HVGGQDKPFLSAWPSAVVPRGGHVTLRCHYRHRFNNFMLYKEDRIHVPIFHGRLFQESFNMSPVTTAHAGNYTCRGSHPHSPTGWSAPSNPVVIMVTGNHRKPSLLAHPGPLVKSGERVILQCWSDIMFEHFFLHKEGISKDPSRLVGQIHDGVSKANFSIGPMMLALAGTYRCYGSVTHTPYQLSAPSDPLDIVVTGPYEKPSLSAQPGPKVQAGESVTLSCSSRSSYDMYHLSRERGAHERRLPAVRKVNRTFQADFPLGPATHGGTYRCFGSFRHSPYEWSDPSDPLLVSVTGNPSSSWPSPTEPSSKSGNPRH
soluble KIR3DL1*033-Fc (human), sequence (P43629 other isoform, or with tags, fused parts or gaps): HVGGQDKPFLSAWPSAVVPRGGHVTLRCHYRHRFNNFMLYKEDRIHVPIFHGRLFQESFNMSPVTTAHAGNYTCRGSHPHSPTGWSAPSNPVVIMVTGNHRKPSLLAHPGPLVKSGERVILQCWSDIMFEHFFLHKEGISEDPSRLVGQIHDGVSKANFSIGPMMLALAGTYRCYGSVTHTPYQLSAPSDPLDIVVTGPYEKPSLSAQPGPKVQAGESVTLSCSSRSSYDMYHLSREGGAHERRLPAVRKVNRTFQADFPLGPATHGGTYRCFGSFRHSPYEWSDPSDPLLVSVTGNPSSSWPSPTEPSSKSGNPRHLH

## DX9 (PHB4385) (antibody)
[1]
  Kd: 30.6 nM
  koff: 0.000992 s⁻¹
  kon: 32400 M⁻¹ s⁻¹
[2]
  Kd: 14.1 nM
[3]
  Kd: 8.6 nM
[4]
  Kd: 30.6 nM
